Measurements as given in patent US20110165265A1 (FUNDACI GEN MICA CRG, published 2011).
Where a chain is given by its changes, count along the chain named. Numbers in names are those of the source.

B1: DcR2-Ig receptor chimera (R&D Systems) (Fc fusion, UniProt Q9UBN6 56-211, looked up, not shown: a dimerising Fc or GST)
chain: ATIPRQDEVPQQTVAPQQQRRSLKEEECPAGSHRSEYTGACNPCTEGVDYTIASNNLPSCLLCTVCKSGQTNKSSCTTTRDTVCQCEKGSFQDKNSPEMCRTCRTGCPRGMVKVSNCTPRSDIKCKNESAASSTGKTPAAEETVTTILGMLASPYH
B2: TRAIL variant D269H (114-281) (ligand)
chain: MVRERGPQRVAAHITGTRGRSNTLSSPNSKNEKALGRKINSWESSRSGHSFLSNLHLRNGELVIHEKGFYYIYSQTYFRFQEEIKENTKNDKQMVQYIYKYTSYPDPILLMKSARNSCWSKDAEYGLYSIYQGGIFELKENDRIFVSVTNEHLIDMHHEASFFGAFLVG
notes: All mutants are said to be of the length 114-281; also called rhTRAIL carrying mutation D269H; DR5-selective variant
B3: TRAIL variant D269HE195R (114-281) (ligand)
chain: B2 chain with E83R
notes: All mutants are said to be of the length 114-281; also called TRAIL-DR5; DE
B4: DcR1-Ig receptor chimera (R&D Systems) (Fc fusion, UniProt O14798 26-221, looked up, not shown: a dimerising Fc or GST)
chain: ATTARQEEVPQQTVAPQQQRHSFKGEECPAGSHRSEHTGACNPCTEGVDYTNASNNEPSCFPCTVCKSDQKHKSSCTMTRDTVCQCKEGTFRNENSPEMCRKCSRCPSGEVQVSNCTSWDDIQCVEEFGANATVETPAAEETMNTSPGTPAPAAEETMNTSPGTPAPAAEETMTTSPGTPAPAAEETMTTSPGTPA

Experiments:
[1] = biological target: B2; experiment: cell-based or functional assay
[2] = biological target: B4; experiment: SPR (Biacore 3000, 37 °C), DcR1-Ig captured on protein A, pre-steady state
[3] = biological target: B1; experiment: SPR (Biacore), DcR2-Ig captured on a protein A-modified CM5 chip, response in RU against ligand concentration (pre-steady state)
[4] = biological target: death receptor 5 (DR5) on the cell surface (human, UniProt O14763 56-440); experiment: cell-based or functional assay
DR5-Ig = biological target: T1, DR5-Ig (UniProt O14763 54-182); experiment: not stated there (SPR by the context of paragraph 339)
T1 construct: also called sDR5; soluble recombinant DR5-Ig; not shown: Ig (Fc) part

[5] = biological target: wild-type TRAIL (recombinant human soluble TRAIL, amino acids 114-281) (human, UniProt P50591 114-281); experiment: cell-based or functional assay
[6] = biological target: B3; experiment: cell-based or functional assay

Chain of wild-type TRAIL (recombinant human soluble TRAIL, amino acids 114-281) (P50591 114-281 limits assumed): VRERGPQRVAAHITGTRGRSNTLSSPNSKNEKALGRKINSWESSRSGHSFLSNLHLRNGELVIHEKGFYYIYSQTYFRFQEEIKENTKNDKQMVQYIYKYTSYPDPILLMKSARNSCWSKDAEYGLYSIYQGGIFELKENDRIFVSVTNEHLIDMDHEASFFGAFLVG

Binder	block of ligand-induced apoptosis of Colo205 cells (Annexin V) after pre-incubation of the ligand with soluble receptor [1]	fold reduction of binding compared to wtTRAIL [2] [fold]	binding result [3]	rate of receptor activation relative to wtTRAIL [4] [fold]	fold increase in kon compared to wtTRAIL (DR5-Ig) [fold]	block of ligand-induced apoptosis of Colo205 cells (Annexin V) after pre-incubation of the ligand with soluble receptor [5] [µg/mL]	block of ligand-induced apoptosis of Colo205 cells (Annexin V) after pre-incubation of the ligand with soluble receptor [6] [µg/mL]
B1	2 fold	–	–	–	–	–	–
B2	–	~20	binds	–	–	–	–
B3	–	~20	binds	17	< 5	–	–
B4	> 2 µg/mL	–	–	–	–	0.5	> 2
